Source: patent US9835633

Test system: human apolipoprotein E4
Sequence (chain, as listed by the source): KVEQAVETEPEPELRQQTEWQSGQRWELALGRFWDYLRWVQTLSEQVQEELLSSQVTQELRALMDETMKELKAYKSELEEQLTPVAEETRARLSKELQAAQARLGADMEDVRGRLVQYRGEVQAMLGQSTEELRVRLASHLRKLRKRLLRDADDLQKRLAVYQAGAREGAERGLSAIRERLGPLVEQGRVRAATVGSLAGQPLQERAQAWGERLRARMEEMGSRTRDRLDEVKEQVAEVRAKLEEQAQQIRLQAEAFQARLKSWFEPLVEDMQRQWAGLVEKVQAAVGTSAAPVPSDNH

| Substance | apoE fragmentation in NSE-apoE4 primary neurons overexpressing the enzyme |
| --- | --- |
| PCSK1 (Protein Convertase, Subtilisin/Kexin-Type-1), overexpressed by transient transfection | A mild increase of apoE fragmentation was also detected in NSE-apoE4 primary neurons overexpressing PCSK1 or PCSK2 |
| PCSK2 (Protein Convertase, Subtilisin/Kexin-Type-2), overexpressed by transient transfection | A mild increase of apoE fragmentation was also detected in NSE-apoE4 primary neurons overexpressing PCSK1 or PCSK2 |
